doi:10.1101/2020.04.20.033787 (bioRxiv, 2020)

Biological target: SBF (^FLAGSwi4-Swi6 complex) (S. cerevisiae, UniProt P25302 1-1093; P09959 1-803)
Test: pull-down

Sequence of SBF (^FLAGSwi4-Swi6 complex) (P25302 whole entry, chain 1 of 2): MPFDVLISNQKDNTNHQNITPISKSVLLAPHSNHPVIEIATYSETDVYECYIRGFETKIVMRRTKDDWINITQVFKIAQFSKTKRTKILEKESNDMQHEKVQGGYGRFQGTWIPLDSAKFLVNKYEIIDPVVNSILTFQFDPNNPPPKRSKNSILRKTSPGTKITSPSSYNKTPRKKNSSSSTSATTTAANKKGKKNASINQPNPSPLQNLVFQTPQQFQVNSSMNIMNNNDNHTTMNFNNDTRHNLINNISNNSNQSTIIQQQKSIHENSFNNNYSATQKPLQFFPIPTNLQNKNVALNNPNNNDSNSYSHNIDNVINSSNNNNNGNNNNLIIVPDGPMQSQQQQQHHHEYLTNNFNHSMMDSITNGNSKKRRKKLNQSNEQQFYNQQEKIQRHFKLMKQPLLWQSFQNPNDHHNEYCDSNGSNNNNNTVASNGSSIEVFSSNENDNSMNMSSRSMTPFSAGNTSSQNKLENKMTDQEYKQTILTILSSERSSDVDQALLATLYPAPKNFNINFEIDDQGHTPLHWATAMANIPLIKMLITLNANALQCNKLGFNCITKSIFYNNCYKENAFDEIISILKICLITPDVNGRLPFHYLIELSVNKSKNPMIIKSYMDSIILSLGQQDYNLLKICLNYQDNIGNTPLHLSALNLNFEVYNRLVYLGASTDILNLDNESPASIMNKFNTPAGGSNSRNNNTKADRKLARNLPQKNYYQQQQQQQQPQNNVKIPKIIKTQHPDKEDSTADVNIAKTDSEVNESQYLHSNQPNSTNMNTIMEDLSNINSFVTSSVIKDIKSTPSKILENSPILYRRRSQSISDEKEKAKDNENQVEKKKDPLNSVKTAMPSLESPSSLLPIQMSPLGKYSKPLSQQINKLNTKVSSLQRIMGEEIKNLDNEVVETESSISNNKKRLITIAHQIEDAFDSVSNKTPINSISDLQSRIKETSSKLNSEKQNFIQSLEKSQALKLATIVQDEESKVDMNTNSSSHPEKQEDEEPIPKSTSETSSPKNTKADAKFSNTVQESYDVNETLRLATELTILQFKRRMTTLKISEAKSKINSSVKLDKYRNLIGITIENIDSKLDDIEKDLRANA
Sequence of SBF (^FLAGSwi4-Swi6 complex) (P09959 whole entry, chain 2 of 2): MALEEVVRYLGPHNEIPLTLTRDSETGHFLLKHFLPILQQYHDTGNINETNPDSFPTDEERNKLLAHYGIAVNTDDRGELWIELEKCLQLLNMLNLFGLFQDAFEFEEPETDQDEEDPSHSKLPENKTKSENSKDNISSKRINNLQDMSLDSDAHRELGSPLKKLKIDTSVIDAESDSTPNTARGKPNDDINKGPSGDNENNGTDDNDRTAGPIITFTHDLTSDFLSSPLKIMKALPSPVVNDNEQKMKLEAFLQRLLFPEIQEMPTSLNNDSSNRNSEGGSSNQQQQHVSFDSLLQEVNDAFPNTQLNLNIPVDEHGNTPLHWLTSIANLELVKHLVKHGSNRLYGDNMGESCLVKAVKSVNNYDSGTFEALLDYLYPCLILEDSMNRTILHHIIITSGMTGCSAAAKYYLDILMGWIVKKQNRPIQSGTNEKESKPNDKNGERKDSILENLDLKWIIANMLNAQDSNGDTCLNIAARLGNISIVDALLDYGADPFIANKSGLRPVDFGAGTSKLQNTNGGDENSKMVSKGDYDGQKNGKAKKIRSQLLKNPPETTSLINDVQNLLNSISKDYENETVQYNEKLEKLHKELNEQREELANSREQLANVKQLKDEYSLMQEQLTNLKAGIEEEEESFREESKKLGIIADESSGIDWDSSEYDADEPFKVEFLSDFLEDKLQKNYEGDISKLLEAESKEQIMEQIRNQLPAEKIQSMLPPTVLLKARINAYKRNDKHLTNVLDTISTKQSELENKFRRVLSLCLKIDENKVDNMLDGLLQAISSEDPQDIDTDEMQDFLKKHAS

B1: ^GSTWhi5 (recombinant) (natural protein, S. cerevisiae, UniProt Q12416 1-295, looked up)
chain: MSLRTPKRSRTSDEQEQEQEQEQVQNPDTHVNNEHQQRPGPTTLLSTPVRLKNGFGTPSPPSPPGITKSITKSRRRPSTTSLQGIFMSPVNKRRVGITAHGRVYDHNDDGHESESEDDENEEENENQKKYDGHVSMPLLPPTTPKSRRSEVFLSPSPRLRSPPTAARRSTGERPIREISHTLRTRLNYALVKLQNGWTDKTLPELETELAPAVQTPPRRYHNRFPDSADAGTSAHTAFLQALGGHPPREEATAVETLMLLSSPTKKQQHRPVPATSAGEPTDETEPESDTEVETS
binding result: binds
